According to PMC6677593 (Molecular cancer therapeutics, 2019):

How the values were obtained:
Human LIFR-Fc = target: T1, Human LIFR-Fc (human, UniProt P42702 45-833); test: SPR
T1 sequence (looked up): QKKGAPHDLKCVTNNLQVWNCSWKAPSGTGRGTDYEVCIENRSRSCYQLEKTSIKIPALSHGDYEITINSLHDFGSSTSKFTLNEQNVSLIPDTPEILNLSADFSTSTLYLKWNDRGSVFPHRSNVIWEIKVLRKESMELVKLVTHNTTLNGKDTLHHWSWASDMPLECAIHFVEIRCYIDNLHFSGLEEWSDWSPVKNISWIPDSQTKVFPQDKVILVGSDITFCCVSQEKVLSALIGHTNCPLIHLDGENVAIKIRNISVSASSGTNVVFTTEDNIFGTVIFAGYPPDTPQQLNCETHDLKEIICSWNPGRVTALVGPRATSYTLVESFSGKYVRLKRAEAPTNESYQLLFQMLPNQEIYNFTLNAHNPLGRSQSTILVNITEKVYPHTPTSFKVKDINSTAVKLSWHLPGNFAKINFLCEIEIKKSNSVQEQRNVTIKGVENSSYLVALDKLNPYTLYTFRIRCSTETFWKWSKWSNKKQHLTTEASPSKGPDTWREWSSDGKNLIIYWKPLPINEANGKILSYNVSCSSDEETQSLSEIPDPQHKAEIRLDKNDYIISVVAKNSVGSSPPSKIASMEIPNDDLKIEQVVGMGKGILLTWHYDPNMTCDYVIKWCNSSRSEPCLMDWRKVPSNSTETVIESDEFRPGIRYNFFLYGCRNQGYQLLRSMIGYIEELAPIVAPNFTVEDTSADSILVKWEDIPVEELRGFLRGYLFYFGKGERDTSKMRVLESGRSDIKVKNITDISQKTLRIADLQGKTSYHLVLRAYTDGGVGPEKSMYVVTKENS

[1] = target: LIFR labelled with fluorescent dye (MST target) (UniProt P42702 45-1097, fluorescent dye, NHS chemistry); test: MST

B1: Recombinant human leukemia inhibitory factor (LIF) (ligand)
chain: not shown
For B1, the Kd (Human LIFR-Fc) was 7 µM and the Kd [1] was 0.00136 µM.
